# Laboratory results published in patent US20170333548A1.
# What was measured:
# Assay in all cases: cell-based or functional assay
# [1] = target: wild-type DENV2 E glycoprotein (Parent_WT_DENV2), on virus particles (Dengue virus 2) (UniProt P07564)
# [2] = target: DV4-EDIII-DV2 chimeric E glycoprotein (DENV4 backbone with DENV2 envelope domain III), on virus particles (Dengue virus 4/2)
# [3] = target: wild-type DENV4 E glycoprotein (Parent_WT_DENV4), on virus particles (Dengue virus 4) (UniProt P09866)
substance,measurement,setting,value
human monoclonal antibody 2D22,FRNT50 (Vero-81 focus reduction neutralization test),[1],0.1 ng/µL
same,FRNT50 (Vero-81 focus reduction neutralization test),[2],0.01 ng/µL
same,FRNT50 (Vero-81 focus reduction neutralization test),[3],> 5 ng/µL
